Consider 18 substances from PMC517823.

Sequence of Ffh (from UniProt P0AGD7) (P0AGD7 whole entry): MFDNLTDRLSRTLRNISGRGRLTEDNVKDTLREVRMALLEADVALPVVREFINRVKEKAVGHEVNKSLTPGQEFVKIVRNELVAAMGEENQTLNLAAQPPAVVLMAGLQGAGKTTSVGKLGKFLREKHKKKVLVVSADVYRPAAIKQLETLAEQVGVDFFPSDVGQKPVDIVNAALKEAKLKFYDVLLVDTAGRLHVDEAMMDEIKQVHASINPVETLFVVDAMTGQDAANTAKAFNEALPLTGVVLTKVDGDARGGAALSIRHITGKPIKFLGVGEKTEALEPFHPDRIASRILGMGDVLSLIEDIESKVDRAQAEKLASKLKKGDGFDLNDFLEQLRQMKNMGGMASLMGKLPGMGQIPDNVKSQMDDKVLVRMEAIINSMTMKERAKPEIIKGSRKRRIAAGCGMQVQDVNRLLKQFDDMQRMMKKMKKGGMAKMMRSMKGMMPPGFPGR
Sequence of FtsY (Escherichia coli) (P10121 2-497): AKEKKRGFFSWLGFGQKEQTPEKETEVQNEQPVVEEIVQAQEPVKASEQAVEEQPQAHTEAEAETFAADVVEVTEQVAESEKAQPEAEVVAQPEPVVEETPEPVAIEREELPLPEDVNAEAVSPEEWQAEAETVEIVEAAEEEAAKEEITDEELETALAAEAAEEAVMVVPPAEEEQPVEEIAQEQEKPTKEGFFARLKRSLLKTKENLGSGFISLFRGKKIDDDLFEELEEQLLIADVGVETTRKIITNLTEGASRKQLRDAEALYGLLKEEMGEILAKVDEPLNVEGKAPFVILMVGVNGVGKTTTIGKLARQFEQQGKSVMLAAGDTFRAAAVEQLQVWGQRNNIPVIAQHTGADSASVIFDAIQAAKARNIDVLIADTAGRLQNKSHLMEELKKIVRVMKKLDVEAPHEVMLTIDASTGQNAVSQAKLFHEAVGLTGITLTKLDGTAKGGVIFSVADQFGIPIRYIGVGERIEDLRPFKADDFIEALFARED
Sequence of wild-type FtsY(47-497) (from UniProt P10121) K453(252)E (P10121 47-497, change not shown): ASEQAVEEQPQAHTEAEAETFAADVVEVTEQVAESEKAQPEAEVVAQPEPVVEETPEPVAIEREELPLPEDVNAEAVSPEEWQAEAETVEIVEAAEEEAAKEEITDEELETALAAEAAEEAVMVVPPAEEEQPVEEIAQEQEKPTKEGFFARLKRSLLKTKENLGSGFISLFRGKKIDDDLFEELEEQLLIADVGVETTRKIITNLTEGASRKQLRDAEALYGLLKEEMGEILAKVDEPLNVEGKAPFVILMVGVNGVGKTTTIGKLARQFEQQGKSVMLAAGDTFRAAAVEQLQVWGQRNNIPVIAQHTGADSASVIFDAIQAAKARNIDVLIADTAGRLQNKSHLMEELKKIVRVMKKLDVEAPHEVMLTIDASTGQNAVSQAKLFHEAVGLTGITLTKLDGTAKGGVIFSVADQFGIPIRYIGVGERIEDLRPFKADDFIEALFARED
Sequence of wild-type FtsY(47-497) (from UniProt P10121) G454(253)W (P10121 47-497, change not shown): as above
Sequence of wild-type FtsY(47-497) (from UniProt P10121) D330(135)A (P10121 47-497, change not shown): as above
Sequence of wild-type FtsY(47-497) (from UniProt P10121) K447(246)A (P10121 47-497, change not shown): as above
Sequence of wild-type FtsY(47-497) (from UniProt P10121) D382(187)A (P10121 47-497, change not shown): as above
Sequence of wild-type FtsY(47-497) (from UniProt P10121) T307(112)W (P10121 47-497, change not shown): as above
Sequence of FtsY Arg386(191) mutant (P10121 47-497, change not shown): as above
Sequence of wild-type FtsY(47-497) (from UniProt P10121) K312(117)A (P10121 47-497, change not shown): as above
Sequence of wild-type FtsY(47-497) (from UniProt P10121) D479(278)A (P10121 47-497, change not shown): as above
Sequence of wild-type FtsY(47-497) (from UniProt P10121) Q339(144)A (P10121 47-497, change not shown): as above
Sequence of wild-type FtsY(47-497) (from UniProt P10121) R386(191)A (P10121 47-497, change not shown): as above
Sequence of wild-type FtsY(47-497) (from UniProt P10121) K306(111)A (P10121 47-497, change not shown): as above

One experiment has as its target Ffh (UniProt P0AGD7). Put plainly: inhibition assay.
Conditions: not given
By Ki is commonly meant a measure of affinity in units of concentration, obtained from inhibition or displacement. “wild-type FtsY(47-497) (from UniProt P10121) K306(111)A” gave a Ki of 3500 nM. On to “wild-type FtsY(47-497) (from UniProt P10121) T307(112)A”, for which the Ki is 7100 nM.

Take “wild-type FtsY(47-497) (from UniProt P10121) G454(253)W”: the Ki amounted to 4200 nM. Substance “wild-type FtsY(47-497) (from UniProt P10121) K312(117)A” had a Ki of 2400 nM.

Turning to “wild-type FtsY(47-497) (from UniProt P10121) K453(252)E”, the Ki stood at 3100 nM. On the same count and under the same terms, to “wild-type FtsY(47-497) (from UniProt P10121) N302(107)W” belongs 140 nM; to “wild-type FtsY(47-497) (from UniProt P10121) Q339(144)A”, 3900 nM; to “wild-type FtsY(47-497) (from UniProt P10121) R333(138)A”, 240 nM.

For “wild-type FtsY(47-497) (from UniProt P10121) N302(107)A”, the Ki stood at 110 nM. Turning to “wild-type FtsY(47-497) (from UniProt P10121) D382(187)A”, the Ki was found to be 27000 nM. Turning to “wild-type FtsY(47-497) (from UniProt P10121) A336(141)W”, the Ki is 160 nM.

In the case of “wild-type FtsY(47-497) (from UniProt P10121) T307(112)W”, the Ki worked out at 9900 nM. In the case of “wild-type FtsY(47-497) (from UniProt P10121) R386(191)A”, the Ki is 120 nM. For the substance “wild-type FtsY(47-497) (from UniProt P10121) D330(135)A”, the Ki came to 2400 nM.

The substance “wild-type FtsY(47-497) (from UniProt P10121) D479(278)A” came in with a Ki of 2800 nM.

“wild-type FtsY(47-497) (from UniProt P10121) K447(246)A” gave a Ki of 11000 nM.

The next experiment addresses FtsY (Escherichia coli) (UniProt P10121).
Assay: not given
To be noted: cited from earlier work.
A word on the Kd: it is the constant that tells how readily two partners part at equilibrium. As to Ffh (from UniProt P0AGD7), the Kd is 16 nM.

Another experiment deals with Ffh (UniProt P0AGD7). Put plainly: other; GTP; inhibition assay. Conditions: domain or fragment.
Sequence of Ffh (UniProt P0AGD7) (P0AGD7 whole entry, the tested form may be a part): as the sequence (P0AGD7 whole entry) above
“FtsY Arg386(191) mutant (from UniProt P10121 47-497)” yielded a Ki of 120 nM.
